Results on 1 molecule are retold here after patent publication US6905817B1, “Ret-independent signaling pathway for GDNF” (Licestia Ltd., priority 1998, dated 2005).

“Also recorded” adds a separate entry of the source.

Data set [1] concerns Ret^−/− DRG neurons. As to the kind of experiment: GDNF-evoked [Ca^2+]i changes, confocal microscopy, Ret^−/− DRG neurons. The class given is cell-based, mouse. The protocol: DRG from embryonic day 18 (E18) mice were treated with trypsin (Worthington), non-neuronal cells removed by preplating, and about 95% pure neurons cultured on poly-ornithine-laminin-coated glass coverslips in Ham's F14 medium (Imperial Laboratories) with serum substitute containing NGF, BDNF and NT-3 (all from PeproTech, 2 ng/ml if each) for at least 1 day before measurement. Neurotrophins were extensively washed out before GDNF application. GDNF was from PeproTech and donated by Cephalon, Inc. Ret-deficient mice (Schuchardt et al., 1994) were identified from heterozygote matings by the absence of kidneys and PCR-based genotyping. GFRα2-deficient mice were obtained from homozygote matings (Rossi et al., 1999).
[Ca^2+]i was measured using a Bio-Rad MRC-1024 confocal microscope equipped with an argon-krypton laser. The cells were loaded with 10 μM Calcium Green-1AM (Molecular Probes), a membrane permeable Ca^2+ dye, by 30 min incubation in serum free cell-culture media at 37 ° C. and 5 % CO2. After loading, the neurons were kept at room temperature in Dulbecco's PBS solution contained 20 mM HEPES (pH=7.4) for at least 20 min prior to the experiments. All compounds were applied to the bath by a peristaltic pump. 6 kD Heparin (Sigma) and Alexa 568 nm fluorescent dye (Molecular Probes) were loaded into the cells using Molecular Probes' pinocytotic influx loading reagent basically according to the manufacturer instructions. […] Cell injection was performed using Eppendorf microinjection system. The average intensity of fluorescence in the predefined ROI (Region Of Interest) was measured on-line using TimeCourse software from BioRad. The calibration of fluorescence traces was performed in vitro using Fmax and Fmin values obtained with the calcium calibration buffer kit (Molecular Probes). Because the calibration solutions may not reflect the intracellular environment, the experimental data are presented as delta [Ca^2+]i calculated using Kd=190 nM for Calcium Green-1.

Data set [2] has as its system p42/p44 MAPK. As to the kind of experiment: MAPK phosphorylation in NIH 3T3 fibroblasts stably transfected with GFRα1. The class given is cell-based. The settings on record: GDNF 100 ng/ml. The protocol: To assess GDNF-dependent MAPK and CREB phosphorylation in all studied cell lines, the semiconfluent cell monolayers were starved for 3 hours in serum-free medium, and then GDNF was applied for the indicated time. For the analysis of MAPK and CREB activation in Ret^−/− animals the DRG neurons were dissected from E18 mice and maintained in NGF-containing medium for 2 hours. After this time the neurons were deprived of NGF by placing them in NGF-free medium in the presence of anti-NGF antibodies. After 2 hr without NGF, the neurons were stimulated with GDNF. In the experiments involving Src-kinase inhibition, a Src-family kinase inhibitor PP2 was added at the indicated concentrations to the cell monolayers 5 min before GDNF application. In some experiments 1 μg/ml of soluble GFRα1 lacking a GPI anchor (GFRα1/Fc chimeric protein; R&D systems) was added 5 min prior to the GDNF application and was kept in the solution during the GDNF treatment, After stimulation, the cells were briefly washed with PBS/sodium vanadate and lysed in the buffer containing TBS, 2 mM EDTA, 1% NP-40, 1% Triton X-100, 1 mM PMSF, 1 mM Na3VO4 and a Complete, protease inhibitors cocktail (Boehringer Mannheim). Total cell protein for each extract was measured by MicroBSA (Pierce) and an equivalent amount of protein was resolved electrophoretically on 10% polyacrylamide gels. […]

For data set [3], the system named is Src-type kinase. Nature of the data set: Immuno-complex kinase assay on anti-GFRα1 co-precipitates from SHEP neuroblastoma cells. Type of data set: cell-based, human. The settings on record: GDNF 100 ng/ml. The protocol:
DRG neurons (5×10^5), SHEP neuroblastoma cells (10^7), Neuro2A neuroblastoma cells stably transfected with GFRα1 (10^7) or NIH3T3 cells (NIH3T3/pBpGFRα1) stably transfected with GFRα1 (10^7) were incubated in serum-free culture medium without (control) or with GDNF (GDNF-treated) for 0.5-15 min at 37° C. The cells were washed twice with cold PBS/vanadate and lysed in TX-100 lysis buffer (50 mM Tris-HCl, pH 7.5, 150 mM NaCl, 5 mM EDTA, 1% Triton X-100, 1 mM sodium orthovanadate, 1 mM phenylmethylsulfonyl fluoride (PMSF) and protease inhibitors (Boehringer) on ice for 1 hour. The postnuclear lysates were pre-cleared by incubation with 50 μl of 50% Protein G-Sepharose for goat polyclonal antibodies or Protein A-Sepharose CL4B (Pharmacia) for rabbit polyclonal antibodies for 1 hour at +4° C. After removal of the beads, the supernatants were incubated with 0.4-0.5 μg of anti-GFRα1 or anti-Yes polyclonal antibodies (Santa Cruz Biotechnology) overnight at +4° C. followed by incubation with Protein G or A-Sepharose for 2 hours. The immunocomplexes were washed twice in TX-100 lysis buffer without EDTA and twice in kinase buffer (25 mM Hepes, pH 7.4, 5 mM MgCl2, 5 mM MnCl2, 1 mM sodium orthovanadate). […] Quantification of the optical density of the blots was performed using the TINA program. […]

In data set [4] the test system is Ret^−/− DRG neurons. Nature of the data set: Survival of Ret^−/− DRG neurons in culture. The class given is cell-based, mouse. Particulars: unpublished observations and Taraviras et al., 1999.

B1: Glial cell line—derived neurotrophic factor (protein, UniProt P39905 78-211, looked up)
Glial cell line-derived …: SPDKQMAVLPRRERNRQAAAANPENSRGKGRRGQRGKNRGCVLTAIHLNVTDLGLGYETKEELIFRYCSGSCDAAETTYDKILKNLSRNRRLVSDKVGQACCRPIAFDDDLSFLDDNLVYHILRKHSAKRCGCI
notes: TGF-β family-related neurotrophic protein; from PeproTech and donated by Cephalon, Inc
Consider B1, for which, in data set [1] (10-100 ng/ml GDNF), the “Ret^−/− DRG neurons with long-lasting [Ca^2+]i elevation” value is reported as 60-70% and the “change in [Ca^2+]i” value is “long-lasting [Ca^2+]i elevation”. For the same molecule, in data set [1] (GDNF), the “fast [Ca^2+]i rise” value was “never observed a GDNF-dependent fast [Ca^2+]i rise”. Moreover, the “change in [Ca^2+]i (calcium entry)” value in data set [1] (GDNF 100 ng/ml in nominally Ca^2+ free external solution (about 20 μM)) was “evoked a massive [Ca^2+]i overshoot and substantially slower decay kinetics; also recorded: resulted in a profound increase in [Ca^2+]i”. In data set [2], the “phosphorylation of MAPK” value is “reproducibly increased phosphorylation of MAPK”. Besides, the “Src type kinase activity associated with GFRα1” value in data set [3] (1 min, postnuclear lysate) is on record as “significantly increased Src type kinase activity”. The “increase of Src-type kinase activity” value in data set [3] (Triton X-100 insoluble fractions, relative to non-treated cells) is reported as “twelve-fold”. For the same molecule, the “survival of Ret^−/− DRG neurons in culture” value in data set [4] is given as “not been shown to stimulate survival”.
